What all share (settings): both partners purified
Experiment [1] addresses T1, RILP(1–401)::Strep-tag II (human, UniProt Q96NA2 1-401).
T1 construct: also called RILP::Strep-tag II; source: Sf21 insect cells (baculovirus), purified (Strep-Tactin Sepharose); not shown: Strep-tag II (after linker GSGSGR), C-terminal, kept
T1 sequence (looked up): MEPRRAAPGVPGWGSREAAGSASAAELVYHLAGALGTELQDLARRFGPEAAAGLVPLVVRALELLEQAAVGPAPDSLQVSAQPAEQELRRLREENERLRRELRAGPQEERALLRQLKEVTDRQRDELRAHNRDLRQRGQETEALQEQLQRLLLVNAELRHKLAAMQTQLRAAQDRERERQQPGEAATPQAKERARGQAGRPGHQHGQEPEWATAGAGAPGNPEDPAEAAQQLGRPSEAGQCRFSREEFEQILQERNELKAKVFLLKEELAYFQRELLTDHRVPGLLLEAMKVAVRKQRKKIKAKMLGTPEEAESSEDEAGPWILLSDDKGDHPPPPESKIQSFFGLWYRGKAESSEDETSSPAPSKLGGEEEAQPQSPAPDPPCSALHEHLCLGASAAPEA
Kind of experiment: pull-down; GST::LIC::6xHis (50 pmol) with 50 or 250 pmol adaptor and glutathione agarose, 1 h at 4°C, 150 μL of 50 mM HEPES, 100 mM NaCl, 5 mM DTT, pH 7.5, 0.1% Tween 20; Coomassie staining and immunoblot against Strep-tag II. Background: In western blotting, separated proteins are transferred to a membrane and probed.

Experiment [2] addresses T2, BICD2(2–422)::Strep-tag II (human, UniProt Q8TD16 2-422).
T2 construct: human bicaudal D homolog 2 (BICD2), N-terminal region, residues 2-422; also called bicaudal D homolog 2; source: E. coli BL21, purified (Ni-NTA, TEV cleavage, Strep-Tactin; dialysis or SEC); not shown: 6xHis::MBP, N-terminal, cleaved; Strep-tag II (after linker GSGSGR), C-terminal, kept
The experiment is described as above.

The target in experiment [3] is T3, HOOK3(2–552)::Strep-tag II (human, UniProt Q86VS8 2-552).
T3 construct: human Hook homolog 3 (HOOK3), residues 2-552; used for the GST pull-downs; also called Hook homolog 3; source: E. coli Rosetta, purified (Ni-NTA, TEV cleavage, Strep-Tactin; dialysis or SEC); not shown: 6xHis::MBP, N-terminal, cleaved; Strep-tag II (after linker GSGSGR), C-terminal, kept
T3 sequence (looked up): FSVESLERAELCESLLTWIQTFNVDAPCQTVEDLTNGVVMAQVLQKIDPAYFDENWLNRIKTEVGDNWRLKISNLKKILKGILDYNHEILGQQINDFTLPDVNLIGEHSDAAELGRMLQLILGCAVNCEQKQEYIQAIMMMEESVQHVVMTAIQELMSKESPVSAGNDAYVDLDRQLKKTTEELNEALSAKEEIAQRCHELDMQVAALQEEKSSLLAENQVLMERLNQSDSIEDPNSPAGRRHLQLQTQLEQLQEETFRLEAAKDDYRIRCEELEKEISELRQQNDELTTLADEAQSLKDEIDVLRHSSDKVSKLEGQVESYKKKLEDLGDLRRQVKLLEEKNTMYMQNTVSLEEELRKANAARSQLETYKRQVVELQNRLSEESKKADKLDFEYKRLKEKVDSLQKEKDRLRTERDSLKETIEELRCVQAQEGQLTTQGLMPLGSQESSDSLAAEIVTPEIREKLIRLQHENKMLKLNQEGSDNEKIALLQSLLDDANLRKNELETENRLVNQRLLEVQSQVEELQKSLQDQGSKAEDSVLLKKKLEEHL
The experiment is described as above.

Experiment [4] deals with T4, RAB11FIP3(2–756)::Strep-tag II (human, UniProt O75154 2-756).
T4 construct: source: E. coli BL21, purified (Ni-NTA, TEV cleavage, Strep-Tactin; dialysis or SEC); not shown: 6xHis::MBP, N-terminal, cleaved; Strep-tag II (after linker GSGSGR), C-terminal, kept
T4 sequence (looked up): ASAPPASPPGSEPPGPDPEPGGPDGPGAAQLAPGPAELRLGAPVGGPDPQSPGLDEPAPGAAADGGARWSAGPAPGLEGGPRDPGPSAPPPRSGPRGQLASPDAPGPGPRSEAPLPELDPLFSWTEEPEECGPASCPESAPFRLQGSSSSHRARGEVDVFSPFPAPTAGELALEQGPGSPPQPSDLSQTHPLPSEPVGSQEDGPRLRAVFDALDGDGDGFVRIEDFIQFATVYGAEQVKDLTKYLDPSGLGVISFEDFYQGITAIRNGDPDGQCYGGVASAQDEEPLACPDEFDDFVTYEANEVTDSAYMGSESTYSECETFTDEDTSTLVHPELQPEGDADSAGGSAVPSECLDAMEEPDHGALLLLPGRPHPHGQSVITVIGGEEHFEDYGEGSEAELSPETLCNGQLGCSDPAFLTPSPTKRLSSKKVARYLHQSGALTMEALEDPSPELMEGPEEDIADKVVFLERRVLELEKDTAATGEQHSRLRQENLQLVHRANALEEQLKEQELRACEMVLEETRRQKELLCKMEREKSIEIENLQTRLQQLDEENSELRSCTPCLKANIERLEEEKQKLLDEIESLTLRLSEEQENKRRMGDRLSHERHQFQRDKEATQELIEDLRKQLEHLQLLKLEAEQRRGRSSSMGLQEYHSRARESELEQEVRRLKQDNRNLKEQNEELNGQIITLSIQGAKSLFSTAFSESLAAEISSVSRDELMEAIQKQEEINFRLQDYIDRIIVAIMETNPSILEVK
The description is as above.

A further experiment deals with T5, NIN(1–693)::Strep-tag II (human, UniProt Q8N4C6 1-693).
T5 construct: human ninein (NIN), N-terminal fragment, residues 1-693 of 2,090; also called ninein; source: E. coli Rosetta, purified (Ni-NTA, TEV cleavage, Strep-Tactin; dialysis or SEC); not shown: 6xHis::MBP, N-terminal, cleaved; Strep-tag II (after linker GSGSGR), C-terminal, kept
T5 sequence (looked up): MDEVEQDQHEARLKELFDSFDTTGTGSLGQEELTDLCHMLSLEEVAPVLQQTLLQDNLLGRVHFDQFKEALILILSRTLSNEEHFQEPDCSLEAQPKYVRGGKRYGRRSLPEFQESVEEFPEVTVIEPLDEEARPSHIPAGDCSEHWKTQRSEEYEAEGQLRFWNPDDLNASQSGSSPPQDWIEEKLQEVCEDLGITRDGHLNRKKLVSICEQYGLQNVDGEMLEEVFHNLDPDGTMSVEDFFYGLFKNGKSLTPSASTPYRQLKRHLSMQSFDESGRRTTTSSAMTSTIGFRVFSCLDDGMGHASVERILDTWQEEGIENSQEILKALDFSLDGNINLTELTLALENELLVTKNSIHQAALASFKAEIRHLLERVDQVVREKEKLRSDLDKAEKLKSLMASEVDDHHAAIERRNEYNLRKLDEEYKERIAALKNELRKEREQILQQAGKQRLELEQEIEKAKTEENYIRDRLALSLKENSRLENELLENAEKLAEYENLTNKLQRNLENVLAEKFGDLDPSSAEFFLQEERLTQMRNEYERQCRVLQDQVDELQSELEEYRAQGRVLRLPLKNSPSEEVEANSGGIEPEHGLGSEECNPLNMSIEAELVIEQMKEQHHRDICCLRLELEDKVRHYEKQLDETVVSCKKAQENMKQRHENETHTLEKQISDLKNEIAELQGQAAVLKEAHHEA
The description is as above.

Experiment [5] deals with T6, SPDL1(2–359)::Strep-tag II (human, UniProt Q96EA4 2-359).
T6 construct: human Spindly (SPDL1), N-terminal region, residues 2-359; also called Spindly; source: E. coli BL21, purified (Ni-NTA, TEV cleavage, Strep-Tactin; dialysis or SEC); not shown: 6xHis::MBP, N-terminal, cleaved; Strep-tag II (after linker GSGSGR), C-terminal, kept
T6 sequence (looked up): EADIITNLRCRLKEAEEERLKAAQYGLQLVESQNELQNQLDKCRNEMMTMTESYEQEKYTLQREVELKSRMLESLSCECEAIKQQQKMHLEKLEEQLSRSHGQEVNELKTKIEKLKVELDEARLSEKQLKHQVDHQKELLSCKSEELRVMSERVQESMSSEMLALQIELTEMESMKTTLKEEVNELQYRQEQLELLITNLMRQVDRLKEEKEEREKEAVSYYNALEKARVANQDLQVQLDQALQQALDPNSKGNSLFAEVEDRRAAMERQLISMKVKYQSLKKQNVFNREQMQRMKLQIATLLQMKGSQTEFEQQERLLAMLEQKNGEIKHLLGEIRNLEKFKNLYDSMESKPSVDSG
Kind of experiment: SPR; Biacore 3000; His-tagged LIC1 immobilised on NTA chip (200–300 RU), Strep-tagged adaptor as analyte; HBS-P (10 mM HEPES, 150 mM NaCl, 0.005% surfactant P20, pH 7.4). A general note: Surface plasmon resonance follows binding to a sensor surface in real time, without labels.

In experiment [6] the target is T2, BICD2(2–422)::Strep-tag II. The experiment is described as above.
Experiment [7] addresses T1, RILP(1–401)::Strep-tag II. Kind of experiment: SPR; Biacore X100, CM5 chip; GST::LIC1::6xHis captured by immobilised anti-GST antibody, RILP::Strep-tag II as analyte (0.3–50 μM); 25°C; 10 mM HEPES, 150 mM NaCl, 3 mM EDTA, 0.05% surfactant P20, pH 7.4; 1:1 model.

T2 sequence (Q8TD16 2-422): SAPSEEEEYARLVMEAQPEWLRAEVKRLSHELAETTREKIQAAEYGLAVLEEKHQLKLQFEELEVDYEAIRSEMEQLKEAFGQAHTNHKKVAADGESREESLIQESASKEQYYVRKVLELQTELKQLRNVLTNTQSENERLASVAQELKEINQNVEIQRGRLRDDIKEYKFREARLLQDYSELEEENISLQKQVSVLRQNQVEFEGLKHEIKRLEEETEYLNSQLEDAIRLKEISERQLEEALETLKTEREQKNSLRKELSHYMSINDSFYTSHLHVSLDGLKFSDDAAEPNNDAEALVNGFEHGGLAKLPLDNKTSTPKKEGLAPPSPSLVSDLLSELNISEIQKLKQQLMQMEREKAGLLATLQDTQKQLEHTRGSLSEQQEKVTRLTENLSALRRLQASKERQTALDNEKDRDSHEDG

B1: GST::LIC1(440–471)::6xHis (domain or fragment, human)
chain: WSEGVLANFFNSLLSKKTGSPGGPGVSGGSPAG
notes: single N-terminal tryptophan added in the construct; human dynein light intermediate chain 1 (DYNC1LI1), residues 440-471; source: E. coli BL21, purified (glutathione agarose, Ni-NTA; dialysis or SEC); not shown: GST, N-terminal, kept; 6xHis (after linker GSGSG), C-terminal, kept
With B1, the binding result in experiment [1], in experiment [2] and in experiment [3] was “binds” in each case.

B2: GST::LIC1(388–471)::6xHis (domain or fragment, human)
chain: WPTAAGRPVDASPRVPGGSPRTPNRSVSSNVASVSPIPAGSKKIDPNMKAGATSEGVLANFFNSLLSKKTGSPGGPGVSGGSPAG
notes: single N-terminal tryptophan added in the construct; source: E. coli BL21, purified (glutathione agarose, Ni-NTA; dialysis or SEC); not shown: GST, N-terminal, kept; 6xHis (after linker GSGSG), C-terminal, kept
With B2, the binding result (in experiment [1]; in experiment [4]; in the experiment with NIN(1–693)::Strep-tag II; in experiment [3]) was “binds” in each case.

B3: LIC1(388–471)::6xHis (domain or fragment, human)
chain: WPTAAGRPVDASPRVPGGSPRTPNRSVSSNVASVSPIPAGSKKIDPNMKAGATSEGVLANFFNSLLSKKTGSPGGPGVSGGSPAG
notes: single N-terminal tryptophan added in the construct; source: E. coli BL21, purified (GSTrap, PreScission cleavage, second GSTrap, SEC Superdex 75); not shown: GST, N-terminal, cleaved; 6xHis (after linker GSGSG), C-terminal, kept
Usually Kd stands for the concentration at which binding is half-saturated. As to B3, the Kd in experiment [5] amounted to 5.4 µM; in experiment [6] it was 0.7 µM.

B4: GST::LIC1(424–471)::6xHis (domain or fragment, human)
chain: WPAGSKKIDPNMKAGATSEGVLANFFNSLLSKKTGSPGGPGVSGGSPAG
notes: single N-terminal tryptophan added in the construct; human dynein light intermediate chain 1 (DYNC1LI1), residues 424-471; source: E. coli BL21, purified (glutathione agarose, Ni-NTA; dialysis or SEC); not shown: GST, N-terminal, kept; 6xHis (after linker GSGSG), C-terminal, kept
Take B4: the binding result in experiment [1], in experiment [2] and in experiment [3] was “binds” in each case.

B5: GST::LIC1(440–455)::6xHis (peptide)
chain: WSEGVLANFFNSLLSKK
notes: single N-terminal tryptophan added in the construct; human dynein light intermediate chain 1 (DYNC1LI1), helix 1, residues 440-455; also called LIC1-C helix 1; GST::LIC1(440–455)::6His; source: E. coli BL21, purified (glutathione agarose, Ni-NTA; dialysis or SEC); not shown: GST, N-terminal, kept; 6xHis (after linker GSGSG), C-terminal, kept
The koff is the rate constant with which the complex falls apart. Low values mean a long-lived complex, high ones a short-lived complex. The term kon denotes a measure of how fast the partners come together. In experiment [7], B5 yielded a Kd of 1.67 µM, a koff of 0.000996 s⁻¹ and an association rate constant (kon) of 606 M⁻¹ s⁻¹.

B6: GST::LIC1(388–523)::6xHis (domain or fragment, human)
chain: WPTAAGRPVDASPRVPGGSPRTPNRSVSSNVASVSPIPAGSKKIDPNMKAGATSEGVLANFFNSLLSKKTGSPGGPGVSGGSPAGGAGGGSSGLPPSTKKSGQKPVLDVHAELDRITRKPVTVSPTTPTSPTEGEAS
notes: single N-terminal tryptophan added in the construct; also called LIC1-C; source: E. coli BL21, purified (glutathione agarose, Ni-NTA; dialysis or SEC); not shown: GST, N-terminal, kept; 6xHis (after linker GSGSG), C-terminal, kept
As to B6, the binding result in experiment [4] was “binds”. In the experiment with NIN(1–693)::Strep-tag II, the binding result was “binds”. In experiment [7], this molecule registered a Kd of 1.18 µM, an off-rate constant (koff) of 0.00101 s⁻¹ and an association rate constant (kon) of 872 M⁻¹ s⁻¹.

The values are drawn from article PMC6336354, “A transient helix in the disordered region of dynein light intermediate chain links the motor to structurally diverse adaptors for cargo transport” (PLoS Biology, 2019).
